# Data published in IntAct's records for PubMed 28436967.
# B1: Katanin p60 ATPase-containing subunit A1 (Mus musculus), Q9WV86 (parent)
# chain: MSLQMIVENVKLAREYALLGNYDSAMVYYQGVLDQMNKYLYSVKDTHLRQKWQQVWQEINVEAKQVKDIMKTLESFKLDITSLQAAQHELPAAEGEVWSLPVPVERRPLPGPRKRQSSQHSDPKPHSNRPSTVVRAHRPSPQNLHNDRGKAVRSREKKEQSKGREEKNKLPAAVTEPEANKFDGTGYDKDLVEALERDIISQNPNVRWYDIADLVEAKKLLQEAVVLPMWMPEFFKGIRRPWKGVLMVGPPGTGKTLLAKAVATECKTTFFNVSSSTLTSKYRGESEKLVRLLFEMARFYSPATIFIDEIDSICSRRGTSEEHEASRRMKAELLVQMDGVGGASENDDPSKMVMVLAATNFPWDIDEALRRRLEKRIYIPLPSAKGREELLRISLRELELADDVNLASIAENMEGYSGADITNVCRDASLMAMRRRIEGLTPEEIRNLSREAMHMPTTMEDFEMALKKISKSVSAADIERYEKWIVEFGSC
# Variants of: B1
# Conditions: with ktnb1_mouse Katnb1, Q8BG40
# Sequence of ktnb1_mouse Katnb1, Q8BG40 (Q8BG40 whole entry): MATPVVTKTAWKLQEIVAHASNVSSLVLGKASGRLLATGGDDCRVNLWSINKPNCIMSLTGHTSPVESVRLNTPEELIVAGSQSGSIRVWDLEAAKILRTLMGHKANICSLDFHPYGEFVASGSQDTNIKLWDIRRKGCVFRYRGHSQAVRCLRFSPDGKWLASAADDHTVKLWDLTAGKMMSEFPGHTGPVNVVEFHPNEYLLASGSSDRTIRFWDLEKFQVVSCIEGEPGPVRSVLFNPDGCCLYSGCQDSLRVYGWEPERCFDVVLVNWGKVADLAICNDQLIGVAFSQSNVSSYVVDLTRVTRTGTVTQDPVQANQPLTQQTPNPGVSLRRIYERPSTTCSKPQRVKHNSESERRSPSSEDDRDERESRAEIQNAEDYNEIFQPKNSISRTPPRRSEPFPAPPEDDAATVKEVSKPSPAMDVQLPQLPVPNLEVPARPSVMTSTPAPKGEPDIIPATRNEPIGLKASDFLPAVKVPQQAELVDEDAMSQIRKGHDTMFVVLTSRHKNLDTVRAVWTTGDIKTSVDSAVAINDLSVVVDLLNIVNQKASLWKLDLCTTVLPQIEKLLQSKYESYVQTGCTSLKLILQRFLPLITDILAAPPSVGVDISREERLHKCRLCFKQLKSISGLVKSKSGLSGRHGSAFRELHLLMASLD
row,Variant,effect of a mutation on the interaction
1,L18A,with no effect
2,L19A,with no effect
